Data reported in patent publication US20230391881A1 (UNIVERSITY OF VIRGINIA PATENT FOUNDATION, published 2023).

Key:
[1] = molecular target: T1, Chi-G4S-DR5 (chimeric DR5: human DR5 extracellular domain, G4S linker, mouse DR5 transmembrane and … (chimeric: human DR5 ECD, mouse DR5 TM …)); assay: flow cytometry on Chi-G4S-DR5 stable 4T1 cells (FIG. 15A)
T1 construct: Stably expressed on murine 4T1 cells; also called Chimeric human-mouse DR5 G4S

FOLR1 = molecular target: T2, FOLR1 (UniProt P15328 25-234); assay: immunoprecipitation, immunoblot with commercial FOLR1 antibody (FIG. 14C)
T2 construct: also called folate receptor alpha
T2 sequence (P15328 25-234 limits assumed): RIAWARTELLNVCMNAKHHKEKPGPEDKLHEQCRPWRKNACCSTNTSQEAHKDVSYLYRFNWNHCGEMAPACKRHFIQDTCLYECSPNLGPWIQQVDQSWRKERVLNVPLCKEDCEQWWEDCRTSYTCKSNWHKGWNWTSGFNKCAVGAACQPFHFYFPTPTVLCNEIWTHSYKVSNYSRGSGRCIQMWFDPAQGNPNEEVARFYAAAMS

B1: Tigatuzumab (antibody, human IgG1, kappa, L234A L235A, V domains shown)
VH: EVQLVESGGGLVQPGGSLRLSCAASGFTFSSYVMSWVRQAPGKGLEWVATISSGGSYTYYPDSVKGRFTISRDNAKNTLYLQMNSLRAEDTAVYYCARRGDSMITTDYWGQGTLVTVSS
VL: DIQMTQSPSSLSASVGDRVTITCKASQDVGTAVAWYQQKPGKAPKLLIYWASTRHTGVPSRFSGSGSGTDFTLTISSLQPEDFATYYCQQYSSYRTFGQGTKVEIKR
notes: also called clinical tigatuzumab antibody
- binding result [1]: binds

B2: Farletuzumab (antibody, V domains shown)
VH: EVQLVESGGGVVQPGRSLRLSCSASGFTFSGYGLSWVRQAPGKGLEWVAMISSGGSYTYYADSVKGRFAISRDNAKNTLFLQMDSLRPEDTGVYFCARHGDDPAWFAYWGQGTPVTVSS
VL: DIQLTQSPSSLSASVGDRVTITCSVSSSISSNNLHWYQQKPGKAPKPWIYGTSNLASGVPSRFSGSGSGTDYTFTISSLQPEDIATYYCQQWSSYPYMYTFGQGTKVEIKR
notes: also called clinical anti-FOLR1, farletuzumab
- binding result (FOLR1): binds
